Results reported in the supplement of paper PMC9112550, “Optimization of the antimicrobial peptide Bac7 by deep mutational scanning” (BMC Biology, 2022).

test system: Escherichia coli TOP10; experiment: shrunken log2 fold change of peptide-encoding DNA abundance (4.5 h post-induction vs induction); higher = less antimicrobial activity (less host growth inhibition); settings: time post-induction: 4.5 h; library: site-saturation at positions 5, 18, 19, 20
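Also: peptides expressed intracellularly from a pBAD plasmid library in pooled LB shake-flask culture, induced with 0.3% L-arabinose, DNA abundance read by NGS, three biological replicates, DESeq2 with apeglm shrinkage.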

Point of comparison: RRIRCRPPRLPRPRPRPYCAPRP, “shrunken log2 fold change” value -0.642. Against it:
- RRIRGRPPRLPRPRPRPCCLPRP — higher, 0.429
- RRIRERPPRLPRPRPRPYLEPRP — higher, -0.271
- RRIRMRPPRLPRPRPRPHACPRP — higher, -0.0695
- RRIRTRPPRLPRPRPRPYEMPRP — within 0.2 log units, -0.482
- RRIRWRPPRLPRPRPRPNEQPRP — higher, -0.00804
- RRIRARPPRLPRPRPRPWQGPRP — higher, 0.0405
- RRIRFRPPRLPRPRPRPAGRPRP — higher, 0.294
- RRIRWRPPRLPRPRPRPKKDPRP — higher, 0.223
- RRIRTRPPRLPRPRPRPSIHPRP — within 0.2 log units, -0.561
- RRIRVRPPRLPRPRPRPEKRPRP — higher, -0.218
- RRIRRRPPRLPRPRPRPTRGPRP — higher, 0.661
- RRIRIRPPRLPRPRPRPTVKPRP — within 0.2 log units, -0.468
- RRIRGRPPRLPRPRPRPCCDPRP — higher, 0.769
- RRIRLRPPRLPRPRPRPWWFPRP — higher, -0.21
- RRIRGRPPRLPRPRPRPDFCPRP — higher, 2.03
- RRIRDRPPRLPRPRPRPMWQPRP — higher, 0.00699
- RRIRLRPPRLPRPRPRPYDFPRP — higher, -0.0867
- RRIRPRPPRLPRPRPRPVHVPRP — higher, 0.18
- RRIRARPPRLPRPRPRPCTQPRP — higher, 0.148
- RRIRGRPPRLPRPRPRPWDMPRP — higher, -0.08
- RRIRFRPPRLPRPRPRPMTVPRP — within 0.2 log units, -0.463
- RRIRMRPPRLPRPRPRPNPEPRP — higher, 0.406
- RRIRERPPRLPRPRPRPMWAPRP — higher, -0.122
- RRIRPRPPRLPRPRPRPAWIPRP — higher, 0.0812
- RRIRLRPPRLPRPRPRPRMCPRP — higher, -0.0246
- RRIRVRPPRLPRPRPRPKTVPRP — higher, -0.012
- RRIRHRPPRLPRPRPRPKLGPRP — higher, -0.249
- RRIRYRPPRLPRPRPRPTMPPRP — within 0.2 log units, -0.725
- RRIRVRPPRLPRPRPRPDGCPRP — higher, 0.101
- RRIRMRPPRLPRPRPRPNVDPRP — higher, 0.0854
- RRIRRRPPRLPRPRPRPDGVPRP — higher, 0.268
- RRIRYRPPRLPRPRPRPLYVPRP — within 0.2 log units, -0.465
- RRIRERPPRLPRPRPRPGPRPRP — higher, 0.537
- RRIRDRPPRLPRPRPRPHGVPRP — higher, -0.00965
- RRIRKRPPRLPRPRPRPRNRPRP — higher, -0.139
- RRIRHRPPRLPRPRPRPHRPPRP — higher, -0.133
- RRIRCRPPRLPRPRPRPMITPRP — higher, -0.0256
- RRIRYRPPRLPRPRPRPCLEPRP — higher, 0.139
- RRIRERPPRLPRPRPRPGTAPRP — higher, -0.0769
- RRIRKRPPRLPRPRPRPRFYPRP — higher, 0.33
- RRIRFRPPRLPRPRPRPETVPRP — higher, 0.0039
- RRIRNRPPRLPRPRPRPQLIPRP — higher, -0.0323
- RRIRRRPPRLPRPRPRPVYWPRP — higher, 0.303
- RRIRRRPPRLPRPRPRPCVAPRP — higher, 0.261
- RRIRYRPPRLPRPRPRPCYPPRP — higher, -0.37
- RRIRQRPPRLPRPRPRPCPVPRP — within 0.2 log units, -0.477
- RRIRYRPPRLPRPRPRPLYAPRP — lower, -1.49
- RRIRGRPPRLPRPRPRPHICPRP — higher, -0.0626
- RRIRDRPPRLPRPRPRPPNCPRP — higher, -0.0514
- RRIRMRPPRLPRPRPRPQEDPRP — higher, -0.0231
- RRIRHRPPRLPRPRPRPASWPRP — higher, 0.305
- RRIRRRPPRLPRPRPRPAPYPRP — higher, 0.408
- RRIRKRPPRLPRPRPRPRCWPRP — higher, 0.931
- RRIRRRPPRLPRPRPRPLSPPRP — higher, 0.411
- RRIRYRPPRLPRPRPRPEGMPRP — higher, 0.0329
- RRIRGRPPRLPRPRPRPEMGPRP — higher, 1.37
- RRIRMRPPRLPRPRPRPPSDPRP — higher, 1.06
- RRIRARPPRLPRPRPRPKHVPRP — higher, 0.0861
- RRIRPRPPRLPRPRPRPSLGPRP — higher, 0.342
- RRIRPRPPRLPRPRPRPVAWPRP — higher, 0.225
- RRIRQRPPRLPRPRPRPPEFPRP — higher, 0.0335
- RRIRGRPPRLPRPRPRPQYRPRP — higher, 0.0878
- RRIRARPPRLPRPRPRPKWNPRP — higher, 0.286
- RRIRHRPPRLPRPRPRPVPYPRP — higher, -0.246
- RRIRERPPRLPRPRPRPECMPRP — higher, -0.0491
- RRIRMRPPRLPRPRPRPMTEPRP — higher, 0.12
- RRIRMRPPRLPRPRPRPRHMPRP — higher, 0.418
- RRIRCRPPRLPRPRPRPFFVPRP — higher, -0.209
- RRIRYRPPRLPRPRPRPLCWPRP — higher, -0.264
- RRIRPRPPRLPRPRPRPCERPRP — higher, 0.0579
- RRIRRRPPRLPRPRPRPDVDPRP — higher, 0.505
- RRIRVRPPRLPRPRPRPLNFPRP — higher, -0.249
- RRIRMRPPRLPRPRPRPWDVPRP — higher, 0.0498
- RRIRHRPPRLPRPRPRPLVFPRP — higher, -0.29
- RRIRERPPRLPRPRPRPMAAPRP — higher, 0.421
- RRIRKRPPRLPRPRPRPSADPRP — higher, 0.027
- RRIRDRPPRLPRPRPRPYKPPRP — higher, -0.0448
- RRIRRRPPRLPRPRPRPSVQPRP — higher, 0.184
- RRIRARPPRLPRPRPRPKTQPRP — higher, 0.0119
- RRIRDRPPRLPRPRPRPEVFPRP — higher, 0.443
- RRIRARPPRLPRPRPRPNNAPRP — higher, 0.00673
- RRIRIRPPRLPRPRPRPYMSPRP — lower, -1.19
- RRIRIRPPRLPRPRPRPVDQPRP — higher, -0.0969
- RRIRFRPPRLPRPRPRPCWCPRP — higher, -0.00345
- RRIRPRPPRLPRPRPRPTRTPRP — higher, 0.508
- RRIRVRPPRLPRPRPRPNICPRP — higher, 0.27
- RRIRTRPPRLPRPRPRPWLWPRP — higher, 0.202
- RRIRCRPPRLPRPRPRPKMGPRP — higher, 0.0549
- RRIRYRPPRLPRPRPRPRGNPRP — higher, -0.0138
- RRIRERPPRLPRPRPRPTTFPRP — higher, -0.367
- RRIRTRPPRLPRPRPRPFVQPRP — higher, -0.177
- RRIRIRPPRLPRPRPRPDYNPRP — lower, -0.998
- RRIRSRPPRLPRPRPRPPADPRP — higher, 0.981
- RRIRERPPRLPRPRPRPGMIPRP — higher, -0.439
- RRIRLRPPRLPRPRPRPVPNPRP — higher, 0.0119
- RRIRDRPPRLPRPRPRPFTIPRP — higher, -0.0247
- RRIRFRPPRLPRPRPRPPYEPRP — higher, -0.202
- RRIRKRPPRLPRPRPRPCTTPRP — higher, -0.132
- RRIRPRPPRLPRPRPRPLVWPRP — higher, 0.412
- RRIRARPPRLPRPRPRPEKLPRP — higher, 0.758
- RRIRPRPPRLPRPRPRPNNVPRP — higher, -0.22
- RRIRERPPRLPRPRPRPNMNPRP — within 0.2 log units, -0.808
- RRIRFRPPRLPRPRPRPMGCPRP — higher, 0.125
- RRIRYRPPRLPRPRPRPPRRPRP — higher, 0.261
- RRIRRRPPRLPRPRPRPHILPRP — within 0.2 log units, -0.68
- RRIRRRPPRLPRPRPRPPDSPRP — higher, 0.289
- RRIRGRPPRLPRPRPRPCMVPRP — higher, 0.304
- RRIRIRPPRLPRPRPRPTPCPRP — higher, 0.598
- RRIRDRPPRLPRPRPRPYGIPRP — higher, -0.00973
- RRIRWRPPRLPRPRPRPVKIPRP — higher, -0.142
- RRIRVRPPRLPRPRPRPLREPRP — higher, 0.379
- RRIRPRPPRLPRPRPRPLSFPRP — higher, -0.132
- RRIRWRPPRLPRPRPRPGSPPRP — higher, 0.0119
- RRIRHRPPRLPRPRPRPRTIPRP — higher, -0.344
- RRIRVRPPRLPRPRPRPQYMPRP — within 0.2 log units, -0.554
- RRIRERPPRLPRPRPRPRSDPRP — higher, -0.323
- RRIRNRPPRLPRPRPRPMTEPRP — higher, 0.00748
- RRIRQRPPRLPRPRPRPVHDPRP — higher, 0.0147
- RRIRSRPPRLPRPRPRPLGMPRP — higher, -0.243
- RRIRTRPPRLPRPRPRPIEAPRP — higher, -0.199
- RRIRFRPPRLPRPRPRPQMHPRP — higher, -0.332
- RRIRTRPPRLPRPRPRPCKCPRP — lower, -1.16
- RRIRTRPPRLPRPRPRPRIDPRP — higher, -0.0699
- RRIRPRPPRLPRPRPRPDLPPRP — higher, 0.315
- RRIRYRPPRLPRPRPRPPEVPRP — higher, -0.142
- RRIRNRPPRLPRPRPRPFKHPRP — higher, -0.39
- RRIRDRPPRLPRPRPRPMLYPRP — higher, -0.0839
- RRIRKRPPRLPRPRPRPISMPRP — higher, -0.00992
- RRIRARPPRLPRPRPRPPNSPRP — higher, 0.136
- RRIRKRPPRLPRPRPRPGVAPRP — higher, 0.892
- RRIRSRPPRLPRPRPRPPFNPRP — higher, -0.298
- RRIRYRPPRLPRPRPRPWAIPRP — higher, 0.0155
- RRIRLRPPRLPRPRPRPVDRPRP — higher, 0.584
- RRIRWRPPRLPRPRPRPHCYPRP — higher, -0.0542
- RRIRDRPPRLPRPRPRPGAQPRP — higher, 1.02
- RRIRKRPPRLPRPRPRPMDAPRP — higher, 0.415
- RRIRQRPPRLPRPRPRPGMNPRP — higher, 0.0205
- RRIRSRPPRLPRPRPRPKYWPRP — higher, -0.166
- RRIRMRPPRLPRPRPRPVAEPRP — higher, 2.88
- RRIRGRPPRLPRPRPRPKFIPRP — higher, -0.425
- RRIRERPPRLPRPRPRPDKGPRP — higher, -0.0116
- RRIRWRPPRLPRPRPRPLMYPRP — higher, -0.0465
- RRIRKRPPRLPRPRPRPCHQPRP — higher, 0.124
- RRIRCRPPRLPRPRPRPLGTPRP — within 0.2 log units, -0.583
- RRIRLRPPRLPRPRPRPHATPRP — higher, -0.0435
- RRIRFRPPRLPRPRPRPWGTPRP — higher, -0.131
- RRIRFRPPRLPRPRPRPKNYPRP — within 0.2 log units, -0.525
- RRIRVRPPRLPRPRPRPNISPRP — higher, -0.321
- RRIRLRPPRLPRPRPRPDQWPRP — higher, -0.158
